Laboratory results published in patent US12145975B2, “Fusion proteins for the treatment of cardiometabolic diseases” (Shattuck Labs, Inc., priority 2022, dated 2024).
Each block holds one molecule with its values, some of them ahead of it.

Tests used:
recombinant human GDF-8 = target: T1, recombinant human GDF-8 (Homo sapiens, UniProt O14793); experiment: MSD platform-based binding assay to plate-bound GDF-8; conditions: anti-human Fc detection
T1 sequence (O14793 267-375): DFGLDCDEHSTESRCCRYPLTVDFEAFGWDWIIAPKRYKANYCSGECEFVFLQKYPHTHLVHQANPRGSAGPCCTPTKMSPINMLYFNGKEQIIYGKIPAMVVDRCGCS
Description: (§1) The binding by a recombinant human ACVR2B-Fc fusion protein to GDF-8 (also known as myostatin) was characterized using a Meso Scale Discovery (MSD) platform-based assay. Briefly, GDF-8 was coated on a plate and 8× serial dilutions of the purified recombinant human ACVR2B-Fc fusion protein were also added in a series of wells. The protein captured by the plate-bound GDF-8 was detected using an anti-human Fc antibody and a SULFO-TAG conjugated secondary antibody.
(§2) The binding to GDF-8 by the GLP-1-Fc-ACVR2B fusion protein produced using the mmRNA constructs was investigated using a Meso Scale Discovery (MSD) platform-based assay. Briefly, HEK293T cells were transfected with each mRNA construct using lipofectamine 2000, and culture supernatants were collected after 48 hours. GDF-8 was coated on a plate, and 3× serial dilutions of the culture supernatants were added to the plate for capture by the plate-bound GDF-8. The protein captured by the plate-bound GDF-8 was detected using an anti-human Fc antibody and a SULFO-TAG conjugated secondary antibody. The MSD signals generated by the culture supernatants of HEK293T cells transfected with different mmRNA constructs were plotted as a line graph.

[1] = target: T2, recombinant human Activin A (Homo sapiens, UniProt P08476); experiment: MSD platform-based binding assay to plate-bound Activin A; conditions: anti-human Fc detection
T2 sequence (P08476 311-426): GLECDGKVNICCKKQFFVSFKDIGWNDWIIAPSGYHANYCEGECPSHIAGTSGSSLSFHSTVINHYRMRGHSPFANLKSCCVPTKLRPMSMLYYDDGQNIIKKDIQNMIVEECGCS
Description: as §1, with “to activin A” for “to GDF-8”, “as Inhibin beta A)” for “as myostatin)”, “Briefly, Activin A” for “Briefly, GDF-8”, “plate-bound Activin A” for “plate-bound GDF-8”
as §2, with “Activin A” for “GDF-8”, “Activin A.” for “GDF-8.”

[2] = tested on: rat insulinoma INS-1 cells; experiment: in vitro glucose-stimulated insulin secretion (GSIS) in rat insulinoma INS-1 cells; format: cell-based; conditions: 1 hour glucose, then 2 hour incubation; ELISA; FIG. 4B
From the text: X is a known inducer of GSIS.

GIP receptor (GIPR) = target: T3, GIP receptor (GIPR) (Rattus norvegicus, UniProt P43219); experiment: cAMP-Glo assay in rat insulinoma INS-1 cells harboring a cAMP-luciferase reporter gene; format: cell-based; conditions: 1 hour glucose, then 2 hour incubation with increasing amounts; FIG. 4A
T3 construct: endogenous in cells; host or cells: rat INS-1 insulinoma cells (derivatives with a cAMP-luciferase reporter or pGloSensor-22F)
T3 sequence (P43219 19-455): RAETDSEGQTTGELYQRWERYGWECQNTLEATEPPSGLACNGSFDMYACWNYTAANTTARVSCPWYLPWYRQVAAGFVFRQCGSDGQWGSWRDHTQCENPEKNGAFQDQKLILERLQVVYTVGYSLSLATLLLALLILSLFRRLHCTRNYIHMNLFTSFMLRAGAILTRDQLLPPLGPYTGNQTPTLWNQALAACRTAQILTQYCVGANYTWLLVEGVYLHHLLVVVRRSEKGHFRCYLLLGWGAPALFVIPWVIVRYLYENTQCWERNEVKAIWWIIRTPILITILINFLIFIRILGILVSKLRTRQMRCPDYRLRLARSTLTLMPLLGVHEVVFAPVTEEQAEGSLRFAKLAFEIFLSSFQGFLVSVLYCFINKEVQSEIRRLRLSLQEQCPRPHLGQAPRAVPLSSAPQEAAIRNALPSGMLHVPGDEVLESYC
From the text: Rat insulinoma INS-1 cells harboring a cAMP-luciferase reporter gene were used to study the activation of GIPR. Without wishing to be bound by theory, the activation of GIPR leads to temporary depletion of ATP because of consumption of ATP in cyclization reaction to produce cAMP as well as by phosphorylation by protein kinase A of its substrate. Without wishing to be bound by theory, the temporary depletion of ATP leads to an inhibition of luciferase activity, which needs ATP as a substrate.

binding to GDF-8 (recombinant human GDF-8): binds to the human GDF-8 | binding to Activin A [1]: binds to the human Activin A
Molecule: GLP-1-Fc-ACVR2B: GLP-1 fused to extracellular domain of ACVR2B via IgG1 Fc domain; SEQ ID NO: 154; tested as culture supernatant of mmRNA-transfected HEK293T cells

B1: GIP(Ag)-Fc-FGF19: chimeric protein: GIP fused to FGF19 via IgG1 hinge-CH2-CH3 Fc domain; SEQ ID NO: 88 (protein)
chain: YAEGTFISDYSIAMDKIHQQDFVNWLLAQKGKKNDWKHNITQPCPAPEAAGGPSVFLFPPKPKDTLMISRTPEVTCVVVDVSHEDPEVKFNWYVDGVEVHNAKTKPREEQYNSTYRVVSVLTVLHQDWLNGKEYKCKVSNKALPAPIEKTISKAKGQPREPQVYTLPPSRDELTKNQVSLTCLVKGFYPSDIAVEWESNGQPENNYKTTPPVLDSDGSFFLYSKLTVDKSRWQQGNVFSCSVMHEALHNHYTQKSLSLSPGKIEGRMDRDSSPLVHYGWGDPIRLRHLYTSGPHGLSSCFLRIRADGVVDCARGQSAHSLLEIKAVALRTVAIKGVHSVRYLCMGADGKMQGLLQYSEEDCAFEEEIRPDGYNVYRSEKHRLPVSLSSAKQRQLYKNRGFLPLSHFLPMLPMVPEEPEDLRGHLESDMFSSPLETDSMDPFGLVTGLEAVRSPSFEK
insulin in the culture supernatant (glucose-stimulated insulin secretion) [2]: stimulated insulin production to a similar, if not greater magnitude than dulaglutide or tirzepatide | inhibition of luciferase (activation of GIPR) (GIP receptor (GIPR)): dose-dependent and saturable inhibition of luciferase with similar potency
